B1: PgiDAH7PS-CM (bifunctional 3-deoxy-D-arabino heptulosonate-7-phosphate synthase / chorismate mutase from Porphyromonas gingivalis) (enzyme, UniProt B2RJM7 1-366, looked up)
chain: MKYCDFTPLPLPSEPNTTVIAGPCSAESEEQIMTTARALRDEAGIRIFRAGLWKPRTLPGCFEGVGETGLPWLVRVQDELDMLATTEVATREHVEQAMQAGIRILWLGARTTSNPFAVQEIADTIGKDESVIVLVKNPISPDLDLWTGALERLRQSGVRQIGAIHRGFSTYATKTFRNPPHWQIPFDLKRRFPSLTILCDPSHITGQRDRIESVSQQAMEMNFDGLIIESHCCPDKALSDASQQITPTVLAQILRRLRIPRRQSEKQDEELISWRMQIDQIDESIVELLARRMQVAYEIGLFKKEHNLAVVQNLRYEQLQRNRARTAALLGLDETFISELFSRIHEESVRLQTLAPQKPHTDDCIS
notes: PgiDAH7PS-CM, Porphyromonas gingivalis, UniProt B2RJM7, 366 amino acid residues; DAH7PS domain 17-253, 11-residue linker, CM domain 265-356; codon-optimised synthetic gene in pET28a; Homodimer by analytical SEC (68 ± 6 kDa against a theoretical monomer of 42 kDa); also called full-length PgiDAH7PS-CM; PgiDAH7PS^WT; source: E. coli BL21 (DE3), purified (HisTrap HP, TEV digestion, second HisTrap); …
B2: PgiCM (separated CM domain of PgiDAH7PS-CM) (domain or fragment, Porphyromonas gingivalis, UniProt B2RJM7 259-366, looked up)
chain: IPRRQSEKQDEELISWRMQIDQIDESIVELLARRMQVAYEIGLFKKEHNLAVVQNLRYEQLQRNRARTAALLGLDETFISELFSRIHEESVRLQTLAPQKPHTDDCIS
notes: C-terminal part of PgiDAH7PS-CM, Porphyromonas gingivalis, UniProt B2RJM7, split between R258 and I259; theoretical monomer MW 13 kDa; source: E. coli BL21 (DE3), purified (HisTrap HP, TEV digestion, second HisTrap); not shown: His6, N-terminal, cleaved

Target: the molecule itself
Assay: SEC; analytical SEC on ENrich SEC 650 calibrated with mass standards; 50 mM BTP pH 7.4, 4°C, protein loaded at 1 mg/mL, 0.2 mL/min; apparent mass compared with theoretical monomer mass

Row | Protein | stoichiometry N
1 | B1 | 2
2 | B2 | 2

Source: publication PMC12202928, “Bidirectional interdomain crosstalk in a Porphyromonas gingivalis chimeric enzyme coordinates catalytic synergy for aromatic amino acid biosynthesis” (Frontiers in Microbiology, 2025)
